Measurements: US20090142365A1 (HEALTH RESEARCH, published 2009)

Biological target: Luciferase (UniProt P08659 1-550 = luciferase, limits assumed)
Experiment: pull-down: 1:1 mix, immunoprecipitation with anti-OVA antibody, western blot with anti-luciferase antibody
Description: Lanes with no chaperone (1st lane) were included as controls. […] In the bottom panel, WB was performed with anti-luciferase to confirm that OVA pull-down was successful.
After SDS-PAGE (10%) electrophoresis, western blot analysis was performed using anti-luciferase (Promega, Madison, Wis.) or anti-gp100 antibody (Santa Cruz Biotechnology, Santa Cruz, Calif.).

Sequence of Luciferase (P08659 whole entry): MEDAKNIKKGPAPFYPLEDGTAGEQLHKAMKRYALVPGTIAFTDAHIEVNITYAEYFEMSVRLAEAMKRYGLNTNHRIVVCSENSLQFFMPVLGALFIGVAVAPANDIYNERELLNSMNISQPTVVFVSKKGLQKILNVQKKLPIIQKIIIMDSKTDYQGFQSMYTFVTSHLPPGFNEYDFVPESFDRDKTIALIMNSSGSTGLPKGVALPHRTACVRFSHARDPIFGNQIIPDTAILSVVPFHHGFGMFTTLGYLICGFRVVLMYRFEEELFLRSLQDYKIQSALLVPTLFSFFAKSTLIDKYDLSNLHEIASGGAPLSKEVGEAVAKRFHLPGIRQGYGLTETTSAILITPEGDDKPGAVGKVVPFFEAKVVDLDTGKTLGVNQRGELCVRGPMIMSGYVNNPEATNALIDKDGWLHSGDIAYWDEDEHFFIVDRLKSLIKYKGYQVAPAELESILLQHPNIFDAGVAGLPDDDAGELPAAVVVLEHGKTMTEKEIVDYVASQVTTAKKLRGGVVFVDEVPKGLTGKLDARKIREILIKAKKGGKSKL

binding result: no binding
B1: Ovalbumin (other, UniProt P01012 2-386, looked up)
chain: GSIGAASMEFCFDVFKELKVHHANENIFYCPIAIMSALAMVYLGAKDSTRTQINKVVRFDKLPGFGDSIEAQCGTSVNVHSSLRDILNQITKPNDVYSFSLASRLYAEERYPILPEYLQCVKELYRGGLEPINFQTAADQARELINSWVESQTNGIIRNVLQPSSVDSQTAMVLVNAIVFKGLWEKAFKDEDTQAMPFRVTEQESKPVQMMYQIGLFRVASMASEKMKILELPFASGTMSMLVLLPDEVSGLEQLESIINFEKLTEWTSSNVMEERKIKVYLPRMKMEEKYNLTSVLMAMGITDVFSSSANLSGISSAESLKISQAVHAAHAEINEAGREVVGSAEAGVDAASVSEEFRADHPFLFCIKHIATNAVLFFGRCVSP
notes: Negative control protein
